This data set concerns the molecule itself. The experiment in a line: Western blot of dimer and monomer bands after SDS-PAGE; hMDMs incubated with MAC (+/- anti-C7) or 5 uM MitoPQ for 3 hours; cells treated with 80 mM MMTS for 10 min at RT before lysis; % dimer = SI dimer/(SI dimer + SI monomer) x 100, expressed relative to untreated control.

B1: mitochondrial peroxiredoxin 3 (natural protein, human (endogenous in hMDMs), UniProt P30048 62-256, looked up)
chain: APAVTQHAPYFKGTAVVNGEFKDLSLDDFKGKYLVLFFYPLDFTFVCPTEIVAFSDKANEFHDVNCEVVAVSVDSHFSHLAWINTPRKNGGLGHMNIALLSDLTKQISRDYGVLLEGSGLALRGLFIIDPNGVIKHLSVNDLPVGRSVEETLRLVKAFQYVETHGEVCPANWTPDSPTIKPSPAASKEYFQKVNQ
notes: peroxiredoxin 3 (Prx3), mitochondrial, endogenous in human monocyte-derived macrophages; detected with rabbit anti-Prx3 (Abcam Ab73349); Cells were incubated in 80 mM methylmethanethiosulfonate (MMTS) for 10 min before lysis; also called Prx3; Prx; source: endogenous, hMDM (human monocyte-derived macrophage) lysate
B1: the “stoichiometry N” value is 2.

As usually defined, the stoichiometry N is the number of molecules, sites or subunits per partner or assembly.

The record behind these values is publication PMC9554752, “Complement membrane attack complex is an immunometabolic regulator of NLRP3 activation and IL-18 secretion in human macrophages” (Frontiers in Immunology, 2022).
